# Source: patent US20140287419A1, “Compositions Having Dicamba Decarboxylase Activity and Methods of Use” (priority 2013, published 2014)
# Changes are numbered by the printed parent chain.
# B1: 59 (protein)
# chain: MAPSVIDAHAHFLPGSLVTALRSRSDAPDIRTDSNGGESFGIYRTRMPYGRTYDALDVRLARMDELGVDRQILSLPGLFGIDSRPVSQALPLVRAFNDGVADLVRKHPDRFSGIAALPLADLDAAQEEYRRARGDLGLSGLILPGDTFVSVAAAERVRPLFELAATIGGLIFVHPGPLPDETGSAVDAPAPHTDSVVHRRVTVDIQNRMTEVMVTLALTDFLAPYPSVPVQVANLGGSLPFVIERMDHVYALRNPEAPPPSLSLRSLYVDAASLGPRAIALAAEVYGADRVLFGSDYPIFDDGRCLDAVRQTRLSPDARALIAGGNAARMLTQT
# modifications: alpha proteobacterium
# B2: 62 (protein)
# chain: MAVGGKNFRDVTDQVWCPKKRIEDMDREGVDIQVLSPIPVTFSYWAKPEEAESMARIQNDFIAETVLAYPDRFVGLGTVPMQDGETAIREMERCITELNLHGIEIGTNVNGKNLDDPSFIEFFRMAEKWQVPIFIHPWETLGRDRMPHHNFMYTVGMPSETALAAATLIWSGIMEKFPRLKVCFAHGGGSFPYILPRLDQGWKVWPHLRLTTHPPSYYAKKFYFDSLNYDPINLKYMIERFGHEKIFMGSDYPFLLREVDPGKVIDETASLSEEQKAAMLGGNAAEFLNIDIKKRGVAYAESTNT
# modifications: Bacillus thuringiensis serovar pulsiensis
# B3: 64 (protein, listed as Achromobacter piechaudii)
# chain: MAIQKIDMHAHFFPPITRQEAAALDPVNAPWLRPDADGATGQIMAGEREFRPVDATLWDPALRIEQMDRHGVDVQILCATPIMFGYTYPARPAADWAARMNDLALEHCAYAPSRLKALAQVPLQDLELACQEASRARAAGHLGVQIGNHVGPRDLDDETLVQFLIHCANNDIPVLVHPWDMMTDGRMKKWMLPWLVSMPAETQLGILSLILSGAFERIPRSLKLCFAHGGGSFAYLLGRVDNAWRHRDIIRQDCPQLPSSYTDRFYTDSAVFDPRSLRLLIDVMGEDRVLLGSDYPYPLGEQEVGRLVAHAELVPEVQQKILFRNTMTFFGLQPGLQPGLQS
# B4: 58 (protein)
# chain: MARVIALEEHYATTEFLRGPGTWLASRPGIVEPAGDLGDGRIAAMDQAGVDLAVLSLAAPGVEQLDPDDAVRLARDCNDQLAAAVRRYPDRLAGFATVPTSAPDRAADELERAVRGLGFPGAVINGHSRGRYLDDPFFEPVLARAAELQAPIYLHPTIPPAGVIESSYAGFAEPVTFALATVGWGWHINTATHALRMILGGVFDRHPSLQMIIGHMGEATSFMLPRFDATLKPELTGLNHPVSSYLRENFHYTFANFNDHATYANLVAQVGIERVAFSADYPFGSMVDARAFLDGLPLSDDERAAISHRNAEKLLGL
# modifications: Mycobacterium colombiense
# B5: 56 (protein)
# chain: MAKIICLEEHYLDSELGRACMPVALEQAPFLGDWGKTVADGHNPDRSRPQIEKNALINAKGADLGSRRLRDMDEAGITLQILSVGGFPQLAPEDEAVTLNTAANDRLAEAVRNHPDRFAAFATLPWAQPKDAENELVRAVEKLGFKGALLNGRPSSCFLDHPDYDSLLSRFNKLNVPLYLHPGLPLKSVQQAYFTGFSAEVNARLSMFGWGWHHEAGIHLLRLMLSGAFDKYPNMQVISGHWGEMLPFWLQRLDDSLPLAATGLSRTLTRTFQEHVYVTPSGMLTLPHFKFIYELMGAERILFSVDYPYQTLDGVKTFIDSLPVNKAEKEAIAFRNAERLLGITA
# modifications: Enterobacter aerogenes
# B6: 53 (protein, listed as Granulicella tundricola)
# chain: MARTITLEEHFVTDSFLRATGAYDKPAPPWLAQLQPKLLDLGDGRIAAMDEAGIDLQVLSLAALGFDALDAATATPLVHDINDELAAAVRANPTRLAAFASLALKDPQSAARELERAIQKLGFRGVLLDGTTDGLFLDDPRFTPVFEAAVALNVPIYLHPAPPPESVFDTYFTGLPEGVGQMLSIAGWGWHAETALHTLRLITNGVFDRYPTLQLIIGHMGEMLPMALARTSKALSHAARLRQPVAAYFQSNIHLTTSGYFTQPPLRCALDVVGIDRLMFSIDYPFSANTLGRDYLTELEQTLTPEDLAKLIHRNAESLLNLS
# B7: 55 (protein, listed as Serratia sp.)
# chain: MAKIICLEEHTLDKALVMASMPAALEQAPFLSDWGKTVTDGNLPDRSRPQIEKNDLINIKGADIGRGRLDDMDVAGITMQVLSVGGFPHLISAAEGVDLNRAANDRLADAVNAHPDRFAAFATLPWAQPDSAEKELERAVKELGFKGALLNGRPSTHFLDHPDYDGLLARFNALGVPLYLHPGLPVRSVQQAYYGGFSDEVTARLSMFGWGWHHEAGIHLLRLILSGAFDKYPNLQVISGHWGEMLPFWLQRLDDSLPQAATGLRRTIAQTFKEQVYVTPSGMLTLPHFQFIYALLGAERIIFSVDYPYQTLDGVKAFIQSLPVPEEAKEAIAFRNAERLLGLTS
# B8: 51 (protein, listed as Mycobacterium gilvum)
# chain: MARVIAIEEHYAHPGLQPAEALANLRKHPQLARIQDKLEDLGAGRLADMDAAGIDMQVLSHTVPGAEALPAAQAVDVVRQTNDDLAEVIAAHPDRFAGFAALPMRDPQAAATELQRAVGTLGFCGAMINGLIEGRFLDHPDFTPLLSTAADLGVPLYLHPSFPPPQVAQIYFGGLPPVLADLLATAGWGWHAETALHVLRLISTGVFDRLPELRVIVGHMGEMIPFALARIDTVLSPMTELRQPVAQYFQTNVWFTTSGYTTFPPLQCALSTVGIDRLIFSVDYPYTDNASARALLDTAPISPVDREKLAHATVEALLRV
# B9: 60 (protein, listed as Catenulispora acidiphila)
# chain: MARGFVRTAVVPGFWDAGWRGAGQPGGMRVDVHAHLFPAAYLDLLDDFRQDGGVGTREVRALGGGDGERELRLRLAAMDAVGVDVQLLSTCPQGPYTGDPTAAVEAARCANVALAQTVAQYPERLRALAALPLPHILASVDELNRAMEQDGMLGAAVGTSILGRPLSHPDFEPLFAALNRRKGVLFVHPIGESAGSPLMQASKLDRVIGYAAEVSTAILQLFQAGLTVKYPDIRIIAPHMGGYLPFLIQRLDRHRDWYLPKDAPSAGQLMRGIAYDTANPLPAALRLTAEVVGPERLLLGTDYPFEQGPSLRDHIEYILAAGLPEAQAKMIVDVNAADFLDMRSGAEQPPV
# B10: 52 (protein, listed as Streptomyces sp.)
# chain: MAKIIALEEHFSDPAVAKAGAARAQALSPGFAASYSPASGLPYSPSPEVLENLAEKRLADMDAGGITMQVLSGLSAQTVPADVAPALVAGSNDKAAAAVRAHPDRFAAFAALPTAAPEAAVAELDRSVNELGFVGTLIMGRTEGEFLDAPRFEPILARAAALKVPVFLHPGVPPREITDSNYAAGLPTGIGTRLQTAAWGWHQETAVHFLHLVHSGVLDRYPDLQFILGHWGETIPFYLDRVDEALPQRATGLDRSFHEYFRENVYLAPSGMWSQAQLRFCLETFPLERIVFAVDYPFIGNEGAVPFLEKAELPEADKRKIAHENAERLLGL
# B11: 54 (protein, listed as Streptomyces sp.)
# chain: B10 chain with S75G, V128I, D223G, T234M, F285V
# B12: 57 (protein)
# chain: MAKLICVEEHVLDPAVGAATQSLVRAEAPYLPDWGSRVLDGRHVADRSRPHVIAPSESARKALEMGEPRLADMDAASIDMQVLSYGGFPQLLPAAQAIDLNRAANDKLALAAQAHPARFAGFATLPWQAPEAAARELERAVKQLGLKGALINGRPGDTFLDDARYAPILAAFDELKVPLYVHPGLPLPAVQAPYYGGFERELSARLAMFAWGWHNEAGIQVVRMLLAGVFDRHPRLQLISGHWGEMVPFFLQRLEDSIPQEASGLQRPIVQTYREHVYISPSGMFTLPHFQFIHALMGAQRILYSIDYPYQSLDGARAFIERLPISDTDKALIAHRNAERLLHL
# modifications: Collimonas fungivorans
# B13: 4 (protein, listed as Lactobacillus buchneri)
# chain: MAKVITLEEHFSSQKLGQKMAEVLPKRPIGNVSPKMQDYMQRSLPPEAELEDVTGSRIQWMDQHQISMQILSYGNQNPQNSDPKFAVELTKLANDELAKAVAKAPDRFRAFASLPVSHPTDAAAELKRGVEELGFKGAMLVRPTSQAHPFFDDPFYLPIFEAAANLNVPVYLHPSFPDSQIIDYYYSNGPWDDKVSGILGTAGYGWHTDVGIQTVRLLLSGVFEKYPNLKLISGHWGEFASFALERMDQVMYPETNLSEPISKIYRDHVYVTPSGILTEPQLKFVKDEVGIEHLLYSIDYPYIKPENSGSFIESSPLTDEEKELFAHGNAEKLLQL
# B14: 61 (protein, listed as Gordonia amarae)
# chain: MATGAGSGVPSPADRVIVRSPGVIDVHAHAVLPMSLGCAGAAGPEIGYREDGSPFFRVGEYVLNGVRYEGSAFMDPEVRVAAMDAAGIGLQMISPNPITYFTRLDARSATDYARAHNDAIAEAAGRHPGRLVGAAQLPMQDVPAAIAELERSVRELGLVAAYIDTDIGDRTLDAPELDDFYSAAVELDVPVFIHPSPVGQEGPPDDTRLRRFDLDLLLGFSYDETLAVAALVFGGVLERHPALDVCLSHGGGTLAFVAGRFARAVAKPRAWVPEFLVENGIESYLRRLWLDTHVHSAGSLRLLIDTVGTDRLVFGTNFAGWDADGATEVDALGDLRETTTANAAHLLRLGRA
# Assay: 14C assay with IPTG-induced recombinant E. coli cells (14CO2 capture from [14C]-carboxyl-labeled dicamba)
# Details: IPTG-induced recombinant E. coli cells; [14C]-carboxyl-labeled dicamba; 14CO2 capture
row,Molecule,Dicamba Decarboxylase Activity
1,B1,No
2,B2,No
3,B3,Low
4,B4,High
5,B5,High
6,B6,High
7,B7,High
8,B8,High
9,B9,No
10,B10,High
11,B11,High
12,B12,High
13,B13,High
14,B14,No

# Same assay, conditions: dicamba decarboxylation activity of the protein of the given SEQ ID NO
row,Molecule,Enzymatic Detection level
1,B1,No
2,B2,No
3,B3,Low
4,B4,High
5,B5,High
6,B6,High
7,B7,High
8,B8,High
9,B9,No
10,B10,High
11,B11,High
12,B12,High
13,B13,High
14,B14,No
